Patent publication US6927039B2, “Enzymatic process” (Nanobiodesign Limited, priority 2000, dated 2005)

Key:
Assay in all cases: Substrate-dependent NADPH consumption assay at 340 nm, purified enzyme (in vitro)
Assay type in all cases: biochemical, Bacillus megaterium
Conditions in all cases: other: purified enzyme, NADPH 130-150 μM, 20° C., pH 8.0
[1] = substrate: CCCCC/C=C\C/C=C\C/C=C\C/C=C\CCCC(=O)O
Procedure: (§1) NADPH consumption was followed at 340 nm using a Δε340=6.22 mM^−1·cm^−1. Both assays were performed at 20° C. using P450 BM3 in 100 mM potassium phosphate buffer, pH 8.0. Reaction was initiated by addition to the substrate bound enzyme of NADPH to a final concentration of 130-150 μM. In the kinetics assay the rate constant kcat was calculated from the linear part of the decrease in A340 with time, which lasted at least for the first 4 sec. The enzyme concentration typically varied between 0.4 and 0.8 μM in the binding assay and between 8 and 25 nM in the catalytic assay. Substrate stock solutions were freshly prepared the day of the assay. Fatty acid stock solutions were in 50 mM potassium carbonate, SDS was easily dissolved in water, while TCE stock solutions were prepared in ethanol. If appropriate, stocks of candidate agents may be prepared in, for example, N,N-dimethylformamide just before the assay. […] The confidence interval for Kd given in the results section is the mean±the standard deviation of at least four measurements, as calculated using the software Kaleidagraph. Similarly kcat was calculated by fitting data points to the Michaelis-Menten equation. Each data point is the mean of at least four measurements.

[2] = substrate: CCCCCCCCCCCC(=O)O
Procedure: as §1

[3] = substrate: CCCCCCCCCCCCOS(=O)(=O)[O-].[Na+]
Procedure: as §1

[4] = substrate: ClC(Cl)C(Cl)Cl
Procedure: as §1

B1: cytochrome P450 BM3 (Priestia megaterium NBRC 15308 = ATCC 14581) (protein)
chain: MTIKEMPQPKTFGELKNLPLLNTDKPVQALMKIADELGEIFKFEAPGRVTRYLSSQRLIKEACDESRFDKNLSQALKFVRDFAGDGLFTSWTHEKNWKKAHNILLPSFSQQAMKGYHAMMVDIAVQLVQKWERLNADEHIEVPEDMTRLTLDTIGLCGFNYRFNSFYRDQPHPFITSMVRALDEAMNKLQRANPDDPAYDENKRQFQEDIKVMNDLVDKIIADRKASGEQSDDLLTHMLNGKDPETGEPLDDENIRYQIITFLIAGHETTSGLLSFALYFLVKNPHVLQKAAEEAARVLVDPVPSYKQVKQLKYVGMVLNEALRLWPTAPAFSLYAKEDTVLGGEYPLEKGDELMVLIPQLHRDKTIWGDDVEEFRPERFENPSAIPQHAFKPFGNGQRACIGQQFALHEATLVLGMMLKHFDFEDHTNYELDIKETLTLKPEGFVVKAKSKKIPLGGIPSPSTEQSAKKVRKKAENAHNTPLLVLYGSNMGTAEGTARDLADIAMSKGFAPQVATLDSHAGNLPREGAVLIVTASYNGHPPDNAKQFVDWLDQASADEVKGVRYSVFGCGDKNWATTYQKVPAFIDETLAAKGAENIADRGEADASDDFEGTYEEWREHMWSDVAAYFNLDIENSEDNKSTLSLQFVDSAADMPLAKMHGAFSTNVVASKELQQPGSARSTRHLEIELPKEASYQEGDHLGVIPRNYEGIVNRVTARFGLDASQQIRLEAEEEKLAHLPLAKTVSVEELLQYVELQDPVTRTQLRAMAAKTVCPPHKVELEALLEKQAYKEQVLAKRLTMLELLEKYPACEMKFSEFIALLPSIRPRYYSISSSPRVDEKQASITVSVVSGEAWSGYGEYKGIASNYLAELQEGDTITCFISTPQSEFTLPKDPETPLIMVGPGTGVAPFRGFVQARKQLKEQGQSLGEAHLYFGCRSPHEDYLYQEELENAQSEGIITLHTAFSRMPNQPKTYVQHVMEQDGKKLIELLDQGAHFYICGDGSQMAPAVEATLMKSYADVHQVSEADARLWLQQLEEKGRYAKDVWAG
notes: expressed in transfected cells; host or cells: E. coli BL21(DE3) transformed with pT7Bm3Z
Question: With B1 as the protein, how does the Km [1] read?
Answer: 0.37 ± 0.07 µM

Question: What about the kcat [1] of the same protein?
Answer: 3570 ± 88 mole NADPH/min/mole P450

Question: What about the Km [2] of the same protein?
Answer: 67.8 ± 14.5 µM

Question: And the kcat [2]?
Answer: 1928 ± 114 mole NADPH/min/mole P450

Question: What about the Km [3] of the same protein?
Answer: 0.51 ± 0.12 µM

Question: What about the kcat [3] of the same protein?
Answer: 2605 ± 61 mole NADPH/min/mole P450

Question: What about the Km [4] of the same protein?
Answer: 7960 ± 2041 µM

Question: And the kcat [4]?
Answer: 5133.5 ± 641.3 mole NADPH/min/mole P450
